This assay addresses T1, Sly1 (wild-type) (S. cerevisiae, UniProt P22213 1-666).
T1 sequence: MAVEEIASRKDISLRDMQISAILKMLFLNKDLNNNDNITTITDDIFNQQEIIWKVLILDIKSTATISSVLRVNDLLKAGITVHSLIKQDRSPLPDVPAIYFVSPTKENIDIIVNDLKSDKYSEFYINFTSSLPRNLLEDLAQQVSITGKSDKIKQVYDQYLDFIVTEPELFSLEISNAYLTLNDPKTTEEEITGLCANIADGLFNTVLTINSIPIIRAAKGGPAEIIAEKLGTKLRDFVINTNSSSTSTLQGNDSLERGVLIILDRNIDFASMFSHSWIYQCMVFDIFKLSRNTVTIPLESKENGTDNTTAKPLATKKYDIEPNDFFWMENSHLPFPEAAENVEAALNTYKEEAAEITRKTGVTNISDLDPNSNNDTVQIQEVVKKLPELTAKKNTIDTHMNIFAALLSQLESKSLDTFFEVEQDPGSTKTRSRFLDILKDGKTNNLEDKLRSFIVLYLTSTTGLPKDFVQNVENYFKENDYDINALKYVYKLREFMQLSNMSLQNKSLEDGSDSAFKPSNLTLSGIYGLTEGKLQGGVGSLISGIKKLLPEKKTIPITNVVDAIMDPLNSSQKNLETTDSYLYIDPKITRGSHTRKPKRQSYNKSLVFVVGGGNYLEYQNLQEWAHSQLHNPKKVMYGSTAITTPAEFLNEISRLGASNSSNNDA
Description: pull-down.

B1: GST-Sed5 cytoplasmic domain (domain or fragment, S. cerevisiae, UniProt Q01590 1-319, looked up)
chain: MNIKDRTSEFQQSVLSYKKRNKNFREQQRERLQEKESENFANNTTGNGKSVSEFQKKASGIAHEISSTAQLLSKLAVLAKRKPMFNDNPVEIAELSFLIKRKIYAIEQSLVQLSQLKKTDVNGNTSNQSSKQPSAVQHSKNVVNLLNTQMKNISGSFKDVLEERQRLEMANKDRWQKLTTDTGHAPADDQTQSNHAADLTTYNNSNPFMTSLLDESSEKNNNSSNQGELSFPQNDSQLMLMEEGQLSNNVYLQERNRAVETIESTIQEVGNLFQQLASMVQEQGEVIQRIDANVDDIDLNISGAQRELLKYFDRIKSNR
For the molecule B1, the binding result is reported as “binds”.

(Values after PMC10943277 (The Journal of Cell Biology, 2024).)
